We go through one molecule from PMC9082959, “Mechanism of Assembly of the Non-Covalent Spectrin Tetramerization Domain from Intrinsically Disordered Partners” (Journal of molecular biology, 2013).

Assay in all cases: ITC; β16β17 at 25–50 μM in the cell titrated with 15–20 injections to 2–2.5 eq of α0α1; one-site binding model; PBS (50 mM sodium phosphate, 150 mM NaCl, pH 7.04), 25 °C; mutants only against the wild-type partner
Holding throughout (settings): both partners purified

One test deals with T1, β16β17 A15G (human, UniProt P11277 1898-2083, A2018G).
T1 construct: erythrocyte β-spectrin, human, residues 1898-2083 (β16β17); mutant of m2; also called A2018G; source: E. coli C41(DE3), purified (Ni2+ agarose, thrombin cleavage, gel filtration)
T1 sequence (looked up): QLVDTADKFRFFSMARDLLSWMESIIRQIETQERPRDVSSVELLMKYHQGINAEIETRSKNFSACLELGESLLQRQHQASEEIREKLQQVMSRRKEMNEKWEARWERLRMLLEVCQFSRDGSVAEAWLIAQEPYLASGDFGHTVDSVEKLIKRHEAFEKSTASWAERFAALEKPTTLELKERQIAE

The next test has as its target T2, β16β17 F62L (human, UniProt P11277 1898-2083, F2065L).
T2 construct: erythrocyte β-spectrin, human, residues 1898-2083 (β16β17); mutant of m2; also called F2065L; source: E. coli C41(DE3), purified (Ni2+ agarose, thrombin cleavage, gel filtration)
T2 sequence (looked up): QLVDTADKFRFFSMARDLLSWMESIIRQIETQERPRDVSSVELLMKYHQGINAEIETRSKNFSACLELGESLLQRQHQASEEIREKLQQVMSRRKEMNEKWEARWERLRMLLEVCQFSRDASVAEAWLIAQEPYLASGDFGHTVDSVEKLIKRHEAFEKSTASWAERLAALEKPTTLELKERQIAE

Test [1] has as its target T3, β16β17 (erythrocyte β-spectrin residues 1898–2083), wild type (human, UniProt P11277 1898-2083).
T3 construct: erythrocyte β-spectrin, human, residues 1898-2083 (β16 plus the incomplete 17th domain); synthetic gene (GenScript) in a modified pRSETA plasmid; source: E. coli C41(DE3), purified (Ni2+ agarose, thrombin cleavage, gel filtration)
T3 sequence (looked up): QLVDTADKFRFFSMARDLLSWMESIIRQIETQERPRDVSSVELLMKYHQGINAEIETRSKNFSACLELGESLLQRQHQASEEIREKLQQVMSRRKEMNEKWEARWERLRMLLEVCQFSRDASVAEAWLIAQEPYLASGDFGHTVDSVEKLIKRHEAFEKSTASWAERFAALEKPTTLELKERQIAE

Another test deals with T4, β16β17 E19A (human, UniProt P11277 1898-2083, E2022A).
T4 construct: erythrocyte β-spectrin, human, residues 1898-2083 (β16β17); mutant of m2; also called E2022A; source: E. coli C41(DE3), purified (Ni2+ agarose, thrombin cleavage, gel filtration)
T4 sequence (looked up): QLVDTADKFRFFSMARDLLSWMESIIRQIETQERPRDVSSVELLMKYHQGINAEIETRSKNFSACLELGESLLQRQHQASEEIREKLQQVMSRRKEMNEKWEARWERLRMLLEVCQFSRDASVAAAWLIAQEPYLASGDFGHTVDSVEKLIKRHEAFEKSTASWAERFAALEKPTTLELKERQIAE

The next test has as its target T5, β16β17 A18G (human, UniProt P11277 1898-2083, A2021G).
T5 construct: erythrocyte β-spectrin, human, residues 1898-2083 (β16β17); mutant of m2; also called A2021G; source: E. coli C41(DE3), purified (Ni2+ agarose, thrombin cleavage, gel filtration)
T5 sequence (looked up): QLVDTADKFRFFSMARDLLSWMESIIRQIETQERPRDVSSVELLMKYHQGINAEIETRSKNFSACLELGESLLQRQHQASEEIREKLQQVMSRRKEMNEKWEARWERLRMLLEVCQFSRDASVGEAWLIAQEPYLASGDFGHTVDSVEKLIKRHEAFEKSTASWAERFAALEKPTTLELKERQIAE

In a further test the target is T6, β16β17 F62A (human, UniProt P11277 1898-2083, F2065A).
T6 construct: erythrocyte β-spectrin, human, residues 1898-2083 (β16β17); mutant of m2; also called F2065A; source: E. coli C41(DE3), purified (Ni2+ agarose, thrombin cleavage, gel filtration)
T6 sequence (looked up): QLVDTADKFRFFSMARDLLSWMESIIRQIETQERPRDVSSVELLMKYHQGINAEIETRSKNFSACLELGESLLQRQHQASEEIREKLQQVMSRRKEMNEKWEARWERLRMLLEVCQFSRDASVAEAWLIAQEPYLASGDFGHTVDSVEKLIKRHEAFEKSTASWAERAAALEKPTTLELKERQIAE

B1: α0α1 (erythrocyte α-spectrin residues 2–163), wild type (domain or fragment, human, UniProt P02549 2-163, looked up)
chain: EQFPKETVVESSGPKVLETAEEIQERRQEVLTRYQSFKERVAERGQKLEDSYHLQVFKRDADDLGKWIMEKVNILTDKSYEDPTNIQGKYQKHQSLEAEVQTKSRLMSELEKTREERFTMGHSAHEETKAHIEELRHLWDLLLELTLEKGDQLLRALKFQQY
notes: synthetic gene (GenScript) in a modified pRSETA plasmid; also called α1α0; source: E. coli C41(DE3), purified (Ni2+ agarose, thrombin cleavage, gel filtration)
Turning to B1, the Ka with β16β17 A15G worked out at 6000 M⁻¹; with β16β17 F62L it was 100000 M⁻¹; in test [1] it was 2.07e+06 M⁻¹; with β16β17 E19A, 93000 M⁻¹; in the test with β16β17 A18G, 130000 M⁻¹; with β16β17 F62A, 13000 M⁻¹.
